Values of other authors in US20190298804A1, “ACTIVATION OF THE ENDOGENOUS ILEAL BRAKE HORMONE PATHWAY FOR ORGAN REGENERATION AND RELATED COMPOSITIONS, METHODS OF TREATMENT, DIAGNOSTICS, AND REGULATORY SYSTEMS” (VOLANT HOLDINGS GMBH, priority 2013, published 2019).

Test system: MIN-6 cells
Conditions: immunoprecipitation and western blotting

B1: BTC: member of the epidermal growth factor family (protein, UniProt P35070 32-111, looked up)
Betacellulin: DGNSTRSPETNGLLCGDPEENCAATTTQSKRKGHFSRCPKQYKHYCIKGRCRFVVAEQTPSCVCDEGYIGARCERVDLFY
modifications: Betacellulin
notes: member of the epidermal growth factor family
- phosphorylation of EGF receptors: induced phosphorylation of only ErbB-1 and ErbB-2
